Where two headings read alike, the source gives them in different places.
B1: designer BMP-GER (ligand)
chain: QAKHKQRKRLKSSCKRHPLYVDFSDVGWNDWIIAPRGYAAFYCDGECSFPLNAHMNATNHAIVQTLVHLMNPEYVPKPCCAPTELNAISVLYFDDNSNVILKNYQDMVVEGCGCR
notes: also called BMPGE P36R
B5: wild type BMP2 homodimer (ligand)
chain: QAKHKQRKRLKSSCKRHPLYVDFSDVGWNDWIVAPPGYHAFYCHGECPFPLADHLNSTNHAIVQTLVNSVNSKIPKACCVPTELSAISMLYLDENEKVVLKNYQDMVVEGCGCR
modifications: N-linked glycan at N56 (CHO-produced)
notes: also called BMP2WT; WT BMP2
B6: ALK6 receptor-human-IgG1-Fc fusion protein (Fc fusion, UniProt O00238 14-126, looked up)
chain: KKEDGESTAPTPRPKVLRCKCHHHCPEDSVNNICSTDGYCFTMIEEDDSGLPVVTSGCLGLEGSDFQCRDTPIPHQRRSIECCTERNECNKDLHPTLPPLKNRDFVDGPIHHR
notes: extracellular domain; See note of m11; also called BMPRIb; not shown: human IgG1 Fc
B8: BMPRII receptor-human-IgG1-Fc fusion protein (Fc fusion, UniProt Q13873 27-150, looked up)
chain: SQNQERLCAFKDPYQQDLGIGESRISHENGTILCSKGSTCYGLWEKSKGDINLVKQGCWSHIGDPQECHYEECVVTTTPPSIQNGTYRFCCCSTDLCNVNFTENFPPPDTTPLSPPHSFNRDET
notes: extracellular domain; See note of m11; also called BMPR IIA; BMPRIIA; not shown: human IgG1 Fc
B9: ALK2 receptor-human-IgG1-Fc fusion protein (Fc fusion, UniProt Q04771 21-123, looked up)
chain: MEDEKPKVNPKLYMCVCEGLSCGNEDHCEGQQCFSSLSINDGFHVYQKGCFQVYEQGKMTCKTPPSPGQAVECCQGDWCNRNITAQLPTKGKSFPGTQNFHLE
notes: extracellular domain; also called ActRIa; ActRI; not shown: human IgG1 Fc
B10: ALK3 receptor-human-IgG1-Fc fusion protein (Fc fusion, UniProt P36894 24-152, looked up)
chain: QNLDSMLHGTGMKSDSDQKKSENGVTLAPEDTLPFLKCYCSGHCPDDAINNTCITNGHCFAIIEEDDQGETTLASGCMKYEGSDFQCKDSPKAQLRRTIECCRTNLCNQYLQPTLPPVVIGPFFDGSIR
notes: extracellular domain; See note of m11; also called BMPRIa; not shown: human IgG1 Fc
B11: Noggin (other, UniProt Q13253 28-232, looked up)
chain: QHYLHIRPAPSDNLPLVDLIEHPDPIFDPKEKDLNETLLRSLLGGHYDPGFMATSPPEDRPGGGGGAAGGAEDLAELDQLLRQRPSGAMPSEIKGLEFSEGLAQGKKQRLSKKLRRKLQMWLWSQTFCPVLYAWNDLGSRFWPRYVKVGSCFSKRSCSVPEGMVCKPSKSVHLTVLRWRCQRRGGQRCGWIPIQYPIISECKCSC
B12: ActRIIB receptor-human-IgG1-Fc fusion protein (Fc fusion, UniProt Q13705 19-137, looked up)
chain: SGRGEAETRECIYYNANWELERTNQSGLERCEGEQDKRLHCYASWRNSSGTIELVKKGCWLDDFNCYDRQECVATEENPQVYFCCCEGNFCNERFTHLPEAGGPEVTYEPPPTAPTLLT
notes: extracellular domain; See note of m11; also called ATRIIB; not shown: human IgG1 Fc

Tests used:
[1] = target: B12; experiment: ActRIIb affinity; method not given
[2] = target: B10; experiment: BLI (Octet), receptor-Fc on anti-human IgG tips
Procedure: (§1) The Octet QK analysis was performed at […] in TBS with 0.1% Tween-20. Samples were agitated at 1000 rpm. […] Each BMP was prepared as a sevenfold serial dilution (typically 200-3 nM in singlicate) plus buffer blanks. Each Receptor/BMP binding pair was run at least in duplicate. Association was monitored for 10 min and dissociation was followed for […] into buffer alone. Kinetic parameters (kon and koff) and affinities (KD) were calculated using the Octet Data Analysis software 6.0 using a partial binding 1:1 model following manufacturer's instructions.

[3] = target: B6; experiment: BLI (Octet), receptor-Fc on anti-human IgG tips
Procedure: as §1

[4] = target: B8; experiment: BLI (Octet), receptor-Fc on anti-human IgG tips
Procedure: as §1

[5] = target: T1, ActRIIA receptor-human-IgG1-Fc fusion protein (human, UniProt P27037 20-135, limits assumed); experiment: BLI (Octet), receptor-Fc on anti-human IgG tips
T1 construct: extracellular domain; See note of m11; not shown: human IgG1 Fc
Procedure: as §1

[6] = target: B9; experiment: BLI (Octet), receptor-Fc on anti-human IgG tips
Procedure: as §1

[7] = target: B12; experiment: BLI (Octet), receptor-Fc on anti-human IgG tips
Procedure: as §1

Noggin = target: B11; experiment: Noggin affinity; method and unit not stated
[8] = target: T2, ALK2 receptor-human-IgG1-Fc fusion protein (human), Q04771; experiment: BLI (Octet), receptor-Fc on anti-human IgG tips; conditions: remark: other sources report otherwise
T2 chain: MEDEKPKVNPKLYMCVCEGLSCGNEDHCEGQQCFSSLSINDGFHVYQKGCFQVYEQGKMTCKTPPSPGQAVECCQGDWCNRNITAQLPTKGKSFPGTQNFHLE

[9] = target: B8; experiment: BLI (Octet), receptor-Fc on anti-human IgG tips; remark: listed apart in the source
Procedure: as §1

wild type BMP2 homodimer [10] = target: B5; experiment: BLI (Octet), receptor-Fc on anti-human IgG tips
Procedure: as §1

wild type BMP6 homodimer [11] = target: T3, wild type BMP6 homodimer (Homo sapiens (Human), UniProt P22004 375-513, N-linked glycan at N80 (CHO-produced)); experiment: BLI (Octet), receptor-Fc on anti-human IgG tips
T3 construct: Produced in CHO cells; also called WT BMP6; BMP6/6
T3 sequence: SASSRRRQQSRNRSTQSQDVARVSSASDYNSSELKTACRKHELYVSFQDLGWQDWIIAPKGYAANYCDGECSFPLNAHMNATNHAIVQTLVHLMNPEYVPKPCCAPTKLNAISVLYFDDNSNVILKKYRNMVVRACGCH
Procedure: as §1

[12] = target: T4, wild type BMP2/6 heterodimer (human, UniProt P12643 283-396; P22004 375-513); experiment: BLI (Octet), receptor-Fc on anti-human IgG tips
Procedure: as §1

wild type BMP2 homodimer [13] = target: B5; experiment: BLI (Octet), receptor-Fc on anti-human IgG tips; remark: listed apart in the source
Procedure: as §1

wild type BMP6 homodimer [14] = target: T3, wild type BMP6 homodimer; experiment: BLI (Octet), receptor-Fc on anti-human IgG tips; remark: listed apart in the source
Procedure: as §1

[15] = target: T4, wild type BMP2/6 heterodimer; experiment: BLI (Octet), receptor-Fc on anti-human IgG tips; remark: listed apart in the source
Procedure: as §1

[16] = target: B9; experiment: BLI (Octet), receptor-Fc on anti-human IgG tips; Table 12, sign printed '<'
Procedure: as §1

[17] = target: B6; experiment: BLI (Octet), receptor-Fc on anti-human IgG tips; remark: listed apart in the source
Procedure: as §1

[18] = target: T1, ActRIIA receptor-human-IgG1-Fc fusion …; experiment: BLI (Octet), receptor-Fc on anti-human IgG tips; remark: listed apart in the source
Procedure: as §1

[19] = target: B12; experiment: BLI (Octet), receptor-Fc on anti-human IgG tips; remark: listed apart in the source
Procedure: as §1

wild type BMP6 homodimer [20] = target: T3, wild type BMP6 homodimer; experiment: BLI (Octet), receptor-Fc on anti-human IgG tips; Table 13: weak binding, 700 nM
Procedure: as §1

designer BMPE = target: T5, designer BMPE (N-linked glycan at N56 (CHO-produced)); experiment: cell-based or functional assay
T5 chain: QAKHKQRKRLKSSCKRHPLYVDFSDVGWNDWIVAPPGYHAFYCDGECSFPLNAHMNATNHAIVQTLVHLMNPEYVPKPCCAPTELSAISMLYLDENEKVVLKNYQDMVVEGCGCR

designer BMP-GER = target: B1; experiment: cell-based or functional assay

T1 sequence (P27037 20-135 limits assumed): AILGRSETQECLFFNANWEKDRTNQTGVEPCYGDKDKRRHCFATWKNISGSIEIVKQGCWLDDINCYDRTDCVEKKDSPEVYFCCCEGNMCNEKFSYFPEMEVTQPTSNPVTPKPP

With B1 the Kd [1] was 2 nM, the Kd [2] was 2 nM and the Kd [3] was 1 nM. It also gave a Kd [4] of 3.5 nM, a Kd [5] of 2 nM and a Kd [6] of 2 nM. The Kd [7] was 0.5 nM and the “Noggin Affinity” value (Noggin) was 4.

B2: designer BMP-E-NR (ligand)
chain: QAKHKQRKRLKSSCKRHPLYVDFSDVGWNDWIVAPPGYHAFYCDGECSFPLNAHMNATNHAIVQTLVHLMNPEYVPKPCCAPTKLRPMSMLYYDDGQNIIKKDIQNMIVEECGCS
With B2 the Kd [1] was 0.5 nM and the “Noggin Affinity” value (Noggin) was 6.

B3: designer BMP-GER-NR (ligand)
chain: QAKHKQRKRLKSSCKRHPLYVDFSDVGWNDWIIAPRGYAAFYCDGECSFPLNAHMNATNHAIVQTLVHLMNPEYVPKPCCAPTKLRPMSMLYYDDGQNIIKKDIQNMIVEECGCS
B3 was tested, and the Kd [1] was 0.07 nM and the “Noggin Affinity” value (Noggin) was 7.5.

B4: wild type BMP2/6 heterodimer, P12643 283-396; P22004 375-513 (ligand)
chain 1: QAKHKQRKRLKSSCKRHPLYVDFSDVGWNDWIVAPPGYHAFYCHGECPFPLADHLNSTNHAIVQTLVNSVNSKIPKACCVPTELSAISMLYLDENEKVVLKNYQDMVVEGCGCR
chain 2: SASSRRRQQSRNRSTQSQDVARVSSASDYNSSELKTACRKHELYVSFQDLGWQDWIIAPKGYAANYCDGECSFPLNAHMNATNHAIVQTLVHLMNPEYVPKPCCAPTKLNAISVLYFDDNSNVILKKYRNMVVRACGCH
B4 showed a Kd [8] of 250 nM.

B5 showed a Kd [9] of 62 nM and a Kd [4] of 62 nM.

With B6 the Kd (wild type BMP2 homodimer [10]) was 1 nM, the Kd (wild type BMP6 homodimer [11]) was 20 nM and the Kd [12] was 0.5 nM. For the same binder, the Kd (wild type BMP2 homodimer [13]) was 1 nM, the Kd (wild type BMP6 homodimer [14]) was 20 nM and the Kd [15] was 0.5 nM.

B7: designer BMPG (ligand)
chain: QAKHKQRKRLKSSCKRHPLYVDFSDVGWNDWIIAPKGYAAFYCHGECPFPLADHLNSTNHAIVQTLVNSVNSKIPKACCVPTELNAISVLYFDDNSNVILKNYQDMVVEGCGCR
notes: Produced in CHO cells; dimer as the other BMPs
B7 was tested, and the Kd [16] was > 1000 nM, the Kd [17] was 1 nM and the Kd [9] was 4 nM. The Kd [18] was 2 nM, the Kd [19] was 0.5 nM and the Kd [3] was 1 nM. The Kd [4] was 4 nM, the Kd [5] was 2 nM and the Kd [7] was 0.5 nM.

With B8 the Kd (wild type BMP6 homodimer [11]) was 4 nM, the Kd [12] was 3 nM and the Kd (wild type BMP6 homodimer [14]) was 4 nM. It also gave a Kd [15] of 3 nM.

For B9, the Kd (wild type BMP6 homodimer [20]) was 700 nM.

With B10 the Kd (wild type BMP6 homodimer [11]) was 11 nM and the Kd (wild type BMP6 homodimer [14]) was 11 nM.

B11 was tested, and the “IC50 (read off the curve)” value (designer BMPE) was ~0.09 µg/mL and the “IC50 (read off the curve)” value (designer BMP-GER) was ~0.04 µg/mL.

B12 was tested, and the Kd (wild type BMP6 homodimer [11]) was 0.5 nM, the Kd [12] was 1 nM and the Kd (wild type BMP6 homodimer [14]) was 0.5 nM. It also gave a Kd [15] of 1 nM.
